Measured values as given in patent publication US20230212267A1.

Molecular target: SARS-CoV-2 Spike protein on pseudovirus (wild type) (SARS-CoV-2) (UniProt P0DTC2)
Test: cell-based or functional assay

Substance “ACE2-Ig (positive control of the pseudovirus neutralization assay) (Fc fusion)” has an IC50, pseudovirus neutralization of 0.9 µg/mL.
